Molecular target: recombinant human Aβ42 sodium hydroxide (NaOH) salt (human) (UniProt P05067)

recombinant human apoE4, sequence (P02649 19-317): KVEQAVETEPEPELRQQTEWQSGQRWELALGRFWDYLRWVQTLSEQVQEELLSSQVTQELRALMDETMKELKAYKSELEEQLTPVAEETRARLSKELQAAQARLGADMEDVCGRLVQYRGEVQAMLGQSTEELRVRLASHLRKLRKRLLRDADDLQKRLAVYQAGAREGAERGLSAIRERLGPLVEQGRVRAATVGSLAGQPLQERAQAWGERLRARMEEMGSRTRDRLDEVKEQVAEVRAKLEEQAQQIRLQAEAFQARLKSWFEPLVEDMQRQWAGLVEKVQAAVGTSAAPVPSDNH

recombinant human apoE4 (from UniProt P02649 19-317) (natural protein)
> 30%: reduction of apoE4-catalyzed Aβ42 fibrillization (ThT, HTS assay) by imipramine at 0.25, 2.5 and 25 μM; no effect on Aβ42 alone | reduction of apoE4-catalyzed Aβ42 fibrillization (ThT, HTS assay) by olanzapine at 0.25, 2.5 and 25 μM; no effect on Aβ42 alone | reduction of apoE4-catalyzed Aβ42 fibrillization (ThT, HTS assay) by sulfacetamide at 0.25, 2.5 and 25 μM; no effect on Aβ42 alone

From PMC9241285
